Results on one molecule are retold here after article PMC8892516, “Intragenic suppressors unravel the role of the SCREAM ACT-like domain for bHLH partner selectivity in stomatal development” (Proceedings of the National Academy of Sciences of the …, 2022).

Numbering of substitutions follows the chain as printed.

The Kd is the concentration at which binding is half-saturated.

For assay [1], the target named is T1, SCRM ACTL (405-494) (Arabidopsis thaliana, UniProt Q9LSE2 405-494).
T1 construct: SCREAM (SCRM, ICE1), Arabidopsis thaliana, At3G26744, ACT-like domain, residues 405-494; also called SCRM ACTL domain; source: E. coli BL21, purified (glutathione resin, thrombin, Superdex-200); not shown: GST, N-terminal, cleaved
T1 sequence (looked up): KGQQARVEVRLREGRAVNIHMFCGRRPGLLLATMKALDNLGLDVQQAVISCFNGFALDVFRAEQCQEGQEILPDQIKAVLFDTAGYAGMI
The assay can be described thus: ITC; Malvern PEAQ-ITC, 25 °C, PBS pH 7.4; 150 μM SCRM ACTL/SCRM L484F ACTL injected into 15 μM SPCH ACTL/MUTE ACTL. Particulars: both partners purified.

Assay [2] deals with T2, SCRM ACTL_(L484F) (405-494) (Arabidopsis thaliana, UniProt Q9LSE2 405-494, L484F).
T2 construct: SCREAM (SCRM, ICE1), Arabidopsis thaliana, At3G26744, ACT-like domain, residues 405-494, L484F (printed L485F in the methods); results, legends and the ITC methods print L484F; the cloning, CD and modelling methods print L485F; also called SCRM-ACTL_(L485F); SCRM L484F ACTL; source: E. coli BL21, purified (glutathione resin, thrombin, Superdex-200); not shown: GST, N-terminal, cleaved
T2 sequence (looked up): T1 sequence (looked up) with L80F
The assay is described as above. Particulars: both partners purified.

B1: SPCH-ACTL (285-364) (domain or fragment, Arabidopsis thaliana, UniProt Q700C7 285-364, looked up)
chain: LADVEVKFSGANVLLKTVSHKIPGQVMKIIAALEDLALEILQVNINTVDETMLNSFTIKIGIECQLSAEELAQQIQQTFC
notes: source: E. coli BL21, purified (glutathione resin, thrombin, Superdex-200); not shown: GST, N-terminal, cleaved
With B1, the results for the Kd in assay [1] and in assay [2] were 1200 nM and 1700 nM, respectively.
